Assays:
HLA-DR [1] = test: flow cytometry, surface, BxPC-3 cells
HLA-DR [2] = test: flow cytometry, permeabilized (cytoplasmic), U87 cells
HLA-DR [3] = test: flow cytometry, surface, HT29 cells
HLA-DR [4] = test: flow cytometry, permeabilized (cytoplasmic), U87 cells + IFN-γ
HLA-DR [5] = test: flow cytometry, surface, FSCCL cells + IFN-γ
HLA-DR [6] = test: flow cytometry, surface, CAG cells
HLA-DR [7] = test: flow cytometry, surface, Aspc-1 cells + IFN-γ
HLA-DR [8] = test: flow cytometry, surface, RL cells + IFN-γ
HLA-DR [9] = test: flow cytometry, permeabilized (cytoplasmic), FSCCL cells + IFN-γ
HLA-DR [10] = test: flow cytometry, surface, RL cells
HLA-DR [11] = test: flow cytometry, permeabilized (cytoplasmic), BxPC-3 cells + IFN-γ
HLA-DR [12] = test: flow cytometry, surface, U87 cells + IFN-γ
HLA-DR [13] = test: flow cytometry, surface, Lovo cells + IFN-γ
HLA-DR [14] = test: flow cytometry, permeabilized (cytoplasmic), U118 cells + IFN-γ
HLA-DR [15] = test: flow cytometry, permeabilized (cytoplasmic), Lovo cells + IFN-γ
HLA-DR [16] = test: flow cytometry, surface, U118 cells
HLA-DR [17] = test: flow cytometry, permeabilized (cytoplasmic), LS174T cells + IFN-γ
HLA-DR [18] = test: flow cytometry, surface, CAG cells + IFN-γ
HLA-DR [19] = test: flow cytometry, permeabilized (cytoplasmic), RL cells + IFN-γ
HLA-DR [20] = test: flow cytometry, permeabilized (cytoplasmic), BxPC-3 cells
HLA-DR [21] = test: flow cytometry, permeabilized (cytoplasmic), Moser cells
HLA-DR [22] = test: flow cytometry, permeabilized (cytoplasmic), Moser cells + IFN-γ
HLA-DR [23] = test: flow cytometry, surface, Moser cells
HLA-DR [24] = test: flow cytometry, surface, KMS11 cells
HLA-DR [25] = test: flow cytometry, permeabilized (cytoplasmic), FSCCL cells
HLA-DR [26] = test: flow cytometry, surface, Capan-1 cells
HLA-DR [27] = test: flow cytometry, surface, Lovo cells
HLA-DR [28] = test: flow cytometry, permeabilized (cytoplasmic), LS174T cells
HLA-DR [29] = test: flow cytometry, surface, HT29 cells + IFN-γ
HLA-DR [30] = test: flow cytometry, permeabilized (cytoplasmic), KMS11 cells
HLA-DR [31] = test: flow cytometry, permeabilized (cytoplasmic), Aspc-1 cells
HLA-DR [32] = test: flow cytometry, surface, TU118 cells + IFN-γ
HLA-DR [33] = test: flow cytometry, permeabilized (cytoplasmic), KMS11 cells + IFN-γ
HLA-DR [34] = test: flow cytometry, surface, FSCCL cells
HLA-DR [35] = test: flow cytometry, surface, BxPC-3 cells + IFN-γ
HLA-DR [36] = test: flow cytometry, permeabilized (cytoplasmic), Aspc-1 cells + IFN-γ
HLA-DR [37] = test: flow cytometry, permeabilized (cytoplasmic), TU118 cells + IFN-γ
HLA-DR [38] = test: flow cytometry, permeabilized (cytoplasmic), CAG cells + IFN-γ
HLA-DR [39] = test: flow cytometry, surface, Moser cells + IFN-γ
HLA-DR [40] = test: flow cytometry, permeabilized (cytoplasmic), Capan-1 cells
HLA-DR [41] = test: flow cytometry, permeabilized (cytoplasmic), RL cells
HLA-DR [42] = test: flow cytometry, permeabilized (cytoplasmic), HT29 cells
HLA-DR [43] = test: flow cytometry, surface, Panc-1 cells + IFN-γ
HLA-DR [44] = test: flow cytometry, surface, U87 cells
HLA-DR [45] = test: flow cytometry, surface, LS174T cells + IFN-γ
HLA-DR [46] = test: flow cytometry, permeabilized (cytoplasmic), Capan cells + IFN-γ
HLA-DR [47] = test: flow cytometry, surface, Aspc-1 cells
HLA-DR [48] = test: flow cytometry, permeabilized (cytoplasmic), Panc-1 cells
HLA-DR [49] = test: flow cytometry, permeabilized (cytoplasmic), HT29 cells + IFN-γ
HLA-DR [50] = test: flow cytometry, permeabilized (cytoplasmic), TU118 cells
HLA-DR [51] = test: flow cytometry, surface, LS174T cells
HLA-DR [52] = test: flow cytometry, permeabilized (cytoplasmic), Lovo cells
HLA-DR [53] = test: flow cytometry, surface, Capan cells + IFN-γ
HLA-DR [54] = test: flow cytometry, permeabilized (cytoplasmic), CAG cells
HLA-DR [55] = test: flow cytometry, surface, TU118 cells
HLA-DR [56] = test: flow cytometry, surface, U118 cells + IFN-γ
HLA-DR [57] = test: flow cytometry, permeabilized (cytoplasmic), Panc-1 cells + IFN-γ
HLA-DR [58] = test: flow cytometry, surface, Panc-1 cells
HLA-DR [59] = test: flow cytometry, surface, KMS11 cells + IFN-γ
HLA-DR [60] = test: flow cytometry, permeabilized (cytoplasmic), U118 cells

B1: hL243γ4P (anti-HLA-DR) (antibody, from a related filing, V domains shown)
VH: QVQLQQSGSELKKPGASVKVSCKASGFTFTNYGMNWVKQAPGQGLKWMGWINTYTREPTYADDFKGRFAFSLDTSVSTAYLQISSLKADDTAVYFCARDITAVVPTGFDYWGQGSLVTVSS
VL: DIQLTQSPSSLSASVGDRVTITCRASENIYSNLAWYRQKPGKAPKLLVFAASNLADGVPSRFSGSGSGTDYTFTISSLQPEDIATYYCQHFWTTPWAFGGGTKLQIKR
flow cytometry fluorescence (HLA-DR [1]): 2.3 | flow cytometry fluorescence (HLA-DR [2]): 102 | flow cytometry fluorescence (HLA-DR [3]): 3.3 | flow cytometry fluorescence (HLA-DR [4]): 429 | flow cytometry fluorescence (HLA-DR [5]): 1610 | flow cytometry fluorescence (HLA-DR [6]): 1930 | flow cytometry fluorescence (HLA-DR [7]): 15.2 | flow cytometry fluorescence (HLA-DR [8]): 862 | flow cytometry fluorescence (HLA-DR [9]): 2520 | flow cytometry fluorescence (HLA-DR [10]): 750 | flow cytometry fluorescence (HLA-DR [11]): 130 | flow cytometry fluorescence (HLA-DR [12]): 172 | flow cytometry fluorescence (HLA-DR [13]): 276 | flow cytometry fluorescence (HLA-DR [14]): 352 | flow cytometry fluorescence (HLA-DR [15]): 989 | flow cytometry fluorescence (HLA-DR [16]): 6.1 | flow cytometry fluorescence (HLA-DR [17]): 42.3 | flow cytometry fluorescence (HLA-DR [18]): 1810 | flow cytometry fluorescence (HLA-DR [19]): 1180 | flow cytometry fluorescence (HLA-DR [20]): 14.2 | flow cytometry fluorescence (HLA-DR [21]): 18.2 | flow cytometry fluorescence (HLA-DR [22]): 40.5 | flow cytometry fluorescence (HLA-DR [23]): 4 | flow cytometry fluorescence (HLA-DR [24]): 677 | flow cytometry fluorescence (HLA-DR [25]): 1470 | flow cytometry fluorescence (HLA-DR [26]): 5.5 | flow cytometry fluorescence (HLA-DR [27]): 7.3 | flow cytometry fluorescence (HLA-DR [28]): 23.4 | flow cytometry fluorescence (HLA-DR [29]): 298 | flow cytometry fluorescence (HLA-DR [30]): 879 | flow cytometry fluorescence (HLA-DR [31]): 11 | flow cytometry fluorescence (HLA-DR [32]): 93.5 | flow cytometry fluorescence (HLA-DR [33]): 927 | flow cytometry fluorescence (HLA-DR [34]): 1090 | flow cytometry fluorescence (HLA-DR [35]): 43.8 | flow cytometry fluorescence (HLA-DR [36]): 73.6 | flow cytometry fluorescence (HLA-DR [37]): 215 | flow cytometry fluorescence (HLA-DR [38]): 2420 | flow cytometry fluorescence (HLA-DR [39]): 8.5 | flow cytometry fluorescence (HLA-DR [40]): 11.6 | flow cytometry fluorescence (HLA-DR [41]): 1060 | flow cytometry fluorescence (HLA-DR [42]): 9.1 | flow cytometry fluorescence (HLA-DR [43]): 4.7 | flow cytometry fluorescence (HLA-DR [44]): 41.9 | flow cytometry fluorescence (HLA-DR [45]): 4.7 | flow cytometry fluorescence (HLA-DR [46]): 253 | flow cytometry fluorescence (HLA-DR [47]): 3.2 | flow cytometry fluorescence (HLA-DR [48]): 22.7 | flow cytometry fluorescence (HLA-DR [49]): 638 | flow cytometry fluorescence (HLA-DR [50]): 23.6 | flow cytometry fluorescence (HLA-DR [51]): 5.3 | flow cytometry fluorescence (HLA-DR [52]): 32.5 | flow cytometry fluorescence (HLA-DR [53]): 66.2 | flow cytometry fluorescence (HLA-DR [54]): 2320 | flow cytometry fluorescence (HLA-DR [55]): 5.08 | flow cytometry fluorescence (HLA-DR [56]): 197 | flow cytometry fluorescence (HLA-DR [57]): 64.1 | flow cytometry fluorescence (HLA-DR [58]): 4.3 | flow cytometry fluorescence (HLA-DR [59]): 665 | flow cytometry fluorescence (HLA-DR [60]): 24.6
